According to CN111995676A (UNIV WEIFANG MEDICAL, dated 2020):
Changes are numbered by the printed parent chain.

Target: T1, 牛血清白蛋白BSA (bovine, UniProt P02769 25-607)
T1 construct: also called BSA蛋白; 牛血清蛋白
Assay: phage ELISA, coated protein

T1 sequence (P02769 25-607 limits assumed): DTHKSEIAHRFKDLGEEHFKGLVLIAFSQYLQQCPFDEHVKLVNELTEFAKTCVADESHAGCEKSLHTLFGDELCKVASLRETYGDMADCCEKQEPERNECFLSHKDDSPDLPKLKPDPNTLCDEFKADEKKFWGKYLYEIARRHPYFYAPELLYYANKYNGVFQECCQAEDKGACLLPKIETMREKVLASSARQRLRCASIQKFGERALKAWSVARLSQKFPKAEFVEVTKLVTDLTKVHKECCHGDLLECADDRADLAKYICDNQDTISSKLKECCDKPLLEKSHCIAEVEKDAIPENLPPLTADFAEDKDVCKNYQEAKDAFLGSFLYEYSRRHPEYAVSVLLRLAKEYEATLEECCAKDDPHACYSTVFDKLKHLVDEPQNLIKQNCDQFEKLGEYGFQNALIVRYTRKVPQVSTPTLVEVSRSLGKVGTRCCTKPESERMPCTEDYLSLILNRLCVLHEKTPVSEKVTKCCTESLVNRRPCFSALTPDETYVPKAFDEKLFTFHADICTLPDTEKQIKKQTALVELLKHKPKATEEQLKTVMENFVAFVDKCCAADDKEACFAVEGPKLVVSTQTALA

B1: 噬菌体展示的A4抗体 (单克隆抗体A4) (antibody, V domains shown)
VH: EVQLLESGGGLVQPGGSLRLSCAASGFTFSSYAMSWVRQAPGKGLEWVSYITNNGANTSYADSVKGRFTISRDNSKNTLYLQMNSLRAEDTAVYYCAKSYATFDYWGQGTLVTVSS
VL: DIQMTQSPSSLSASVGDRVTITCRASQSISSYLNWYQQKPGKAPKLLIYNASGLQSGVPSRFSGSGSGTDFTLTISSLQPEDFATYYCQQAAYYPTTFGQGTKVEIKR
notes: also called 噬菌体展示A4抗体; A4噬菌体
binding result: no binding (tested: 1μg/mL coated)

B2: 噬菌体展示的A2抗体 (单克隆抗体A2) (antibody, V domains shown)
VH: B1 VH with Y50G, T52D, N53A, N54S, A56Y, N57Y, S99D, Y100A, A101Y
VL: B1 VL with N50S, G53Y, A92S, Y93A, Y94D, T96D
binding result: no binding (tested: 1μg/mL coated)

B3: 噬菌体展示的C3抗体 (单克隆抗体C3) (antibody, V domains shown)
VH: EVQLLESGGGLVQPGGSLRLSCAASGFTFSSYAMSWVRQAPGKGLEWVSSIASSGYYTDYADSVKGRFTISRDNSKNTLYLQMNSLRAEDTAVYYCAKDADSFDYWGQGTLVTVSS
VL: B1 VL with N50A, G53Y, A92Y, Y93S, Y94A, T96S
binding result: no binding (tested: 1μg/mL coated)
